Assay: label from the status in PepcDB records

Sequence | protein production
MDRATEPVLFFFMAFFWALNYVMVKFAYAYDLSSSILLMRVLYASIFSSLIFIRQIKLPKSPLEHLKVFILANLNITGFFSLWFFGETGVSAAVTSIVIYSYPILATAFSYLFLGDRFGAMKTLGLILGFAGLVIIFIRSINVENLVDLIMLLVAAISWAIGTVFYRKYLLGYDSAGLNTLQLLYALPVVLLISLFTGGINIGLLQLKFNLIMIYMGSFGTAIAYFIYLYLYRKYKVSSISAYFFLVPAISVVLAAVLLKEPISALTIAGFAVMSAGIFLSGSFK | failed
MDRFDAMRAFARVVETGSFTKAADTLHMSKTSVTQLVQQLEARLRVRLLNRTTRKVNATADGAAYYERVRQLLADLEDAETSLSGASATPGGRLRVDVPSPFASTILVPALPAFQARYPDILLHLGVSDREVDLIDENVDCVIRGGQIGNLSLAARHVGDLQLGVYASPGYLARAGVPAHPRELQDAQHRIIGFSWSRARRLFPCAMRRRADERIEVAGRHALLLDEGNAYLAAGLAAMGVIGVPTYMAEAHVERGALIRLFGDWRLDPMPLYIAYPQNRHVSAKLRVFIDWIVELMARHAPVTDAPPPHRSARMPGGPAAIPTDITGA | failed
MDRIVEIEKYSFDETYETSLRPSNFDGYIGQESIKKNLNVFIAAAKKRNECLDHILFSGPAGLGKTTLANIISYEMSANIKTTAAPMIEKSGDLAAILTNLSEGDILFIDEIHRLSPAIEEVLYPAMEDYRLDIIIGSGPAAQTIKIDLPKFTLIGATTRAGMLSNPLRDRFGMQFRLEFYKDSELALILQKAALKLNKTCEEKAALEIAKRSRSTPRIALRLLKRVRDFADVNDEEIITEKRANEALNSLGVNELGFDAMDLRYLELLTAAKQKPIGLASIAAALSEDENTIEDVIEPYLLANGYIERTAKGRIASAKSYSALKLNYEKTLFEE | not failed
MDRKLLHLLCSPDTRQPLSLLESKGLEALNKAIASGTVQRADGSIQNQSLHEALITRDRKQVFRIEDSIPVLLPEEAIATIQIANFPDKLEHHHHHH | not failed
MDRLAHMQMFVAVVEAGSITAAAERMNLAKSAVSRRLAELEAGLGVSLIQRTTRRLNLTESGRTYYARCVAILADVEDAEAEVSQGHGALRGRLKVALPQAFGLLHLAPLIQTFMKRHPDVRLELDFNDRQVDLMQEGFDLAIRIATLADSTLIARRLAAIPHRVVASPGYLARRGTPRAAADLTQHDCLAYSNVRDPGLWSYRDPGGEPGQVRVVVRLAASSGEFLLQAAIADEGLVLLPAFYLHAALRSGQLSEVLADHRWPEPAAYAVYPPTRHLSARAHAFIDFLAGHLGGAGEPPAGDEVAPTLAPNTSAG | failed
MDRLNQIQIILVETSLSANIGSAARAMKTMGLSNLRLVRPKNPLDEQATALAAGAKNILDNAQIFNTFDAAIADCQLIIGTSARLRHLQSTLVEPRECGKLIINNTNQHKIALIFGRERIGLTNEELLKCHYHLNVPTNPEYESLNLAMAVQLACYEIRMAWLELQKKPIIQPLTEEKNYPTAAAMAHFFDHTERL | not failed
MDRNEIGLNAGKVWQLLSNNEKWGYGTLKRKSGLKDKELGAALGWLSRENKIEFDQCDEELYVYLCVNVYIG | failed
MDRNGANMLDGRVESDAKGSFRKDYTKMENNNNGANISDGIYRIIRSFKSFSHFFIRYEEETKEREAEMEIGFPTDVKHLSHIGVDGTMTTFDNTSSSFPFSGFHLTGTVV | failed
MDRNSKIVVGLVAVLSIAGLVLSLAGLLEGGEGTIAIIPVHGAIAYDTAGFSDGVDPDDIKELIAEANSDPSVKAIVLDINSPGGTPVASEELMDAINKSEKPVVSWISDSGTSGAYLAASASDRIVASPSAWVGSIGVILDLTDLSQMYRQMGINKYAIKAGEYKDMGADYRMITDEERQMLQSMVNEEYDYFIKTVAANRNLSVSYVKSLAEGRIFTGRQAVRNRLVDFTGGKDYAVEVAAKLAGVKNYNTITLEPPSGFLRVLSSMFSRLGFASGNTTEELQLH | failed
MDRRDAMGLSGSGSYYIHRGLSGSGPPTFHGSPQQQQGLRHLPNQNSPFGSGSTGFGSPSLHGDPSLATAAGGAGALPHHIGVNMIAPPPPPSETPMKRKRGRPRKYGQDGSVSLALSSSSVSTITPNNSNKRGRGRPPGSGKKQRMASVGELMPSSSGMSFTPHVIAVSIGEDIASKVIAFSQQGPRAICVLSASGAVSTATLIQPSASPGAIKYEGRFEILALSTSYIVATDGSFRNRTGNLSVSLASPDGRVIGGAIGGPLIAASPVQVIVGSFIWAAPKIKSKKREEEASEVVQETDDHHVLDNNNNTISPVPQQQPNQNLIWSTGSRQMDMRHAHADIDLMRG | failed
MDRRRFIKGSMAMAAVCGTSGIASLFSQAAFAADSDIADGQTQRFDFSILQSMAHDLAQTAWRGAPRPLPDTLATMTPQAYNSIQYDAEKSLWHNVENRQLDAQFFHMGMGFRRRVRMFSVDPATHLAREIHFRPELFKYNDAGVDTKQLEGQSDLGFAGFRVFKAPELARRDVVSFLGASYFRAVDDTYQYGLSARGLAIDTYTDSKEEFPDFTAFWFDTVKPGATTFTVYALLDSASITGAYKFTIHCEKSQVIMDVENHLYARKDIKQLGIAPMTSMFSCGTNERRMCDTIHPQIHDSDRLSMWRGNGEWICRPLNNPQKLQFNAYTDNNPKGFGLLQLDRDFSHYQDIMGWYNKRPSLWVEPRNKWGKGTIGLMEIPTTGETLDNIVCFWQPEKAVKAGDEFAFQYRLYWSAQPPVHCPLARVMATRTGMGGFPEGWAPGEHYPEKWARRFAVDFVGGDLKAAAPKGIEPVITLSSGEAKQIEILYIEPIDGYRIQFDWYPTSDSTDPVDMRMYLRCQGDAISETWLYQYFPPAPDKRQYVDDRVMS | failed
MDRTHERVLQAMAENLGEGLPRAIPLLAEKAPGLLLEHGRSWTYAMPEKGALDEKTRTLILLGIALATGSEACVKAMAHRAKRLGLSKEALLETLKIARQAQANAVLGHAAPLLEVL | not failed
MDSDPLGVFPNSPKYHPYYSQTTEFGGVIDLGLSLRTIQHEIYHSSGQIMTCGKGYCSNEGYRRKWGYVKVTMDGLVVGRKVCVLDHGSYSTLAHQLEDMFGMQSVSGLRLFQMESEFCLVYRDEEGLWRNAGDVPWNEFIESVERLRITRRNDAVLPF | failed
MDSGKSRSLETTVKRVYRDLLLPKINTSKKMSTLTNSPSSLEGTPGIKKNSGEMQAEASAERVKLTKSIKEKQNNELEKVALKRKADSEEKLVGKKEAKIMELDNQLVTTVPLPHIPLKNIMDVEMKLVYVDEEDVSYEFAQPNMCLGLQATGQTATTMPPASPRDLTTLPQIDKWLQVALKDASSCYRQKKYAVAAGQFRTALELCSKGAALGKPFEAHAEDIASIASFIETKLVTCYLRMRKPDLALNHAHRSIVLNPAYFRNHLRQAAVFRCLERYSEAARSAMIADYMFWLCGGSEHSVSKLIKLYWQAMIEEAITRAEAFSVMYTPFATRIKPENIEKVKEVFMRTHPTYVDCIYTDTQGLHVLPQTADWSCFPPQQYLLTLGFKNKEDGKFLEKVSSRKLPTYTEHKTPFSPLTREDTVRHMETVGKRILPILDFIRSTQLNGNFHACSGVMEKLHYASLLSRLQRVKEQAQVINQAMAELATVPYLQDISQQEAELLQSLMADAMDTLEGKKSDKERVWNTIQKVKF | failed
MDSIQESDVLNAVKTKLPPCCLRIFRNKIILVGTYDLDKSTGYRSGSLDVFTMDLKLLCSNNTYGAILDLKLSPFDDTLICTAHSTGNIMLWRIRCTDKDDFQSNELDIHAIANLQLFEKDVLIASCHFSPLDCKKLLVTNTAGEAATIDIRTLSVQFTASAIAQAYSKLDKIDYEVQGATEKVIHVESGQFLKPHELECWTAEFGSLQPFQDVVFTGGDDSRIMAHDLRSKEFIWSNNRIHDAGVVSIKCSQPNFRNNKPTSIITGSYDDNIRSLDLRMMGESIFPGANVPTVNKLACDLGGGVWRFVESPIDQEQSHHNGSDRLLVCCMYNGAKVVTMNDNSDEYFQIQHYLKKGHDSMCYGGDWSNSLIATCSFYDNSLQTWIV | failed
MDSLVASYASSDEEEDLQPRREAFTVKSSEPSASSLFSAIPQPKELKSSEDGDLGSSSSRGKSSSFLSSLPPPKSSISRKKNPNPSSIPKRVVQIRLPVNPRPSNLDDEDDEEEEKARKKRKQMESASASHDSSVRSFLSAMPAPKSSQTLGALPSLGSGSGRRSNLETETPSIAFPQTDSGISDQQNQSYESFSHSNSETEQIVGVDNYYATGYDGGYETIPSGSSVGYDGSSYGGNTWNGGGFEAMTGLPEAVVAMDSGARRGRRGRNQMPEIVEVKQDELMKNRPRVDQVKSTGIAFGPAYQPVTSSSKGKVSKLHKRKHQITALFMDMKHKESELTERRSRGLLTKAETQAKYGW | failed
